Reference: the nanobody polyreactivity screen of Harvey et al. (2022)

Assay: yeast display, Sf9 membrane polyspecificity reagent, FACS + sequencing; frameworks hold sequencing errors
Summary of the method: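 In a synthetic yeast display library (Saccharomyces cerevisiae BJ5465), nanobody expression was induced with galactose for 36–48 hours. FACS gates were set low and high (top ~1%) using anti-HA fluorescence for expression and streptavidin fluorescence for binding of the Sf9 membrane reagent. Each polyreactivity label is drawn from the gate of origin.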

Row | Sequence | polyreactivity (PSR sort gate)
1 | QVQLVESGGGLVQAGGSLRLSCAASGSTFGWYTMGWYRQAPGKERELVAAITSRGTRTSYADSVKGRFTISRDYAKNTVYLQMNSLKPEDTAVYYCAARVFRGLGEYYWGQGTQVTVSS | high polyreactivity
2 | QVQLVESGGGLVQAGGSLRLSWAASGFTFKYNAMGLYRQAHGKERELVAAISGSGGRTYYSDSVKGRFTISRDNAKNTVYLQMNSLKPEYTAVYYCAAVYLVTLGARYDYWGQGTQVTVSS | high polyreactivity
3 | QVQLVESGGGLVQAGGSLRLSCAASGRTFTSYAMGWYRQAPGKERELVAGISSGGSTNYADSVKGRFTISRDNEKNTVYLQMNSLKPEDTEVYYCAAGFSPGTYDAPTLAFDYWGQGTQVTVSS | low polyreactivity
4 | QVQLVESGGGLLQAGGSLRLSCAASGIIFHYNAMGWYRQAPWKQRELVAAITSTDNTNYADSVKGRFTISRDNAKNTVYLQMNSLIAEATAVYYCNASVGRDSAYDYWGQGTQVTVSS | low polyreactivity
5 | QVHLLESGGGLVQAGGSLRLSCAASGRTLSRYTMGWYRQAPGKERELVAAISTSGSTYYADSVKGRFTISRDNAKNTVYLPMNCLKPEDTAVYYCAATHWAYSRVPYDYWGQGTQVTVSS | high polyreactivity
6 | QVQLVESGGGLVQAGGSLRLSCAASGRIFDPYAMGGYRQAPGKERELVANITLRGGITYYADSVKGRFTISRDNAKNTVYLQMNSLKPEDTAVYDCNADGYPDVGAGTYGYWGQGTQVTVSS | low polyreactivity
7 | QVQLVESGGGLVQAGGSLRLSFAASGRIFDYNVMGWYRQAPGKERELVADITSSGGATYYADSVKGRFTNSRDNAKNTVYLQMNSLKPEDTAVYYCYISYFTFYDDFYYWGQGTQVTVSS | low polyreactivity
8 | QVQLVESGGGLVQAGGSLRLSCAASGSTFSRNAMGWYRQAPGKERELVAAITQSGGRTYYADSVKGRFTISRDNAKNTVYLQMNSLKPEDTAVYYCNARGRRSGYISGYDYWGQGTQVTVSS | high polyreactivity
9 | QVQLVESGGRLVQAGGSLRLICAASGLIFYHNAMGWYRQAPGKERELVAAITASGGSTYYADSVKGRFTISRDNAKNTVYLQMNSLKPEDTAVYSCSADGPLDSDLDYWGQGTQVTVSS | low polyreactivity
10 | QVQLVESGGGLVQAGGSLRLSCAASGFTFGRYAMGWYRQAPGKERELVAAITWSGGTTTYYADSVKGRFTISRDNAKNTVYLQMTSLKPEDTAVYYCAADLYFYIYSYNYWGQGTQVTVSS | low polyreactivity
11 | QDQLVESGGCLVQAGGSLRLSCAASGSTFPIYAMGWYRQEPGKERELVAPITWNGGRTYYADSVKGRFTISRDNAKNTVYLQMNSLKPEDTAVYYCNALYYHNLEGNYWGQGTQVTVSS | high polyreactivity
12 | QVQLVESGGGLVQAGGSLRLSCAASGSILSINGMGWYRQAPGKERELVATIDGSDGSTFYADSVKGRFTISRDNAKNTVYLQMNSLKPEDTAVYYCAAENFWQTKEYDYWGQGTQVTVSS | low polyreactivity
13 | QVQLVESGGGLVQAGGSLRLSCAASGSISTYYAMGWYRQAPGKERELVAAITRNGGSTYYADSVKGRFTISRDNSKNTVYLQMNSLKPEDTAVYYCAARNAFGTYYYWGQGTQVTVSS | high polyreactivity
14 | QVQLVESGGGLVQAGGSLRLCCAATGSIFPGNAMGWYRQAPGKEMELVATNTWSGGSTYYADSVKGRFTISRDNAKNTVYFQMKSLKPVDTAVYYCKADSSWFYQWKDYGMYDYWGQGTQVTVSS | low polyreactivity
15 | QVHLVESGGGLVQAGGSLRLSCAASGRTFSKYAMGWYRPAPGKERELVAAITSRGSSTYYADSVKGRFTISRDYAKNTVYLLMNSLKPEDTAVYYCNAGGYYIRTGWYRSGSDYWGQGTQVTVSS | high polyreactivity
16 | QVQLVESGGGLVQAGGSLRLSCAASGSIFSPYAMGWYRQAPGKERELVAAISRSGRTHYADSVKGRFTISRDNAKNTVYLQMNSLKPEDTAVYYCAAGVVYGYYYWGQGTQVTVSS | high polyreactivity
17 | QYQLVESGGGLVQAGGSLRLICAASGRIINKKAMGRYRHAPGKERELVAAITSSGGSTYYADSVKGRFTISRDNAKNTVYLQMNSLKPEDTAVYYCAAYAYGRFGKLNYWGQGTQVTVSS | low polyreactivity
18 | QVQLVESGGGLVQAGGSLRLSCAASGRTFYLNAMGWYRPAPGKERELVAAITRTGGRTYYADSVKGRFTISRDNAKNTVYLQMNSLKPEDTAVYYCAADYVNYSYEYWGQGTQVTVSS | high polyreactivity
19 | QVQLVESGRGLVQAGGSLRLSCAASGRIFYRYVMGWYRQAPGKERELVAAITSSGGSTYYADSVKGRFTISRDNAKNTVYFQMNSLKPEDTAVYYCSADRYTRYRYNYWGQGTQVTVSS | high polyreactivity
20 | QVQLVESGGGLVQAGGSLRLSCAASGFTFRAYAMGWYRQAPGKERELVAAITRSGVSTYYADSVKGRFTISRDNAKNTVYLQMNSLKPEDTAVYYCAAVAQRVGRSGTIEGDSWGQGTQVTVSS | high polyreactivity
21 | QVQLVESGGGLVQAGGSLRLSCAASGSTFDTNAMGWYRQAPGKERELVAAITSGGNTYADSVKGRFTISRDNAKNTVYLQMNSLKPEDTAVYYCAAEDVYTGWYDYWGQGTQVTVSS | low polyreactivity
22 | QVQLVESGGGLVQAGGSLRLSCAASGSIFYDNAMGWYRQAPGKERELVAAISFRGSSTYYADSVKGRFTISRDNAKNTVYLQMNSLKPEDTAVYYCNTDIYVQYGWGQGTQVTVSS | low polyreactivity

Row | Sequence | polyreactivity (PSR sort gate)
23 | QVQLVESGGGLVQAGGSLRLTCAASGSIFFQNAMGWYRQAPGKERELVATITSSVGSTYYADSVKGRFTISRDNAKNTVYFQMNSLKPEDTAVYYCNVRVFSAALWYTYFGYDYWGQGTQVTVSS | low polyreactivity
24 | QVQLVESGGGLVQSGVSLRLSCAASGIIFFSNTMGWYRQAPGKEREFVAAITWSTGNTYYADSVKGRFTISRDNAKNTVYLQMNSLKPEDTAVYYCYAEFLVITWYGGVEFDYWGQGTQVTVSS | low polyreactivity
25 | QVQLVESGGGLVQAGRSLRLSCAASGYTFSRYTMGWYRQAPGKEWELVAAISSSGGSTYADSVKGRFTISRDNAKNTVYLQMTSLKPEDTGVYYCNRYYRRATKVGDWGQGTQVTVSS | high polyreactivity
26 | QVQLVESGGGLVQAGGSLRLSCAASGRTIHFNTMGWYRQAPGKERELVAAIRWGGNTYYADSVKGRFTISRDNAKNTVYLQKNSLKPEDTAVYYCAADRWYYFLMYYWGQGTQVTVSS | low polyreactivity
27 | QVQLVESGGGLVHAGGSLRLSCAASGSIFAGNAMGWYRQAPGNERELVAGISRSGGSTNYADSVKGRFTISRDNAKNTVYLQMIRLKPEDTAVYYFAASATPSGVGMDYWGQGTQVNVSS | low polyreactivity
28 | QVQLQESGGGLVQADGSLRLSCAASGSMFGYYYMGWYRQAPGKDRELVATIHICGITNYADSVKGRFTISRDNAKNTVYLQMNSLKPDDTAVYYCAADEYAQRDLGYWGQGTQVTVSS | low polyreactivity
29 | QVQLVESGGGLVQAGGSLRLSCAASGSTFGDNAMGWYRQAPGKERELVATITSGGNTNYADSVKGRFTISRDNAKNTVYLQMNSLKPEDTAGYYCNTDFRPAGTTGTTTARYEYWGQGTQVTLSS | low polyreactivity
30 | QVQLVESGGGLVQAGCSLRLSCAASGSNFEENAMGWYRQAPGKESELVAAITIGGRTNYADSVKGRFTISRDNAKNTVYLQMNSLKPEDTAVYYCAADLSSNKYWRFWTRYYYWGQGTQVTVSS | low polyreactivity
31 | QVQLVESGGGLVQAGGSLRLSCAASGSTFNRYALGWYRQAPGKEREFVAAISTRGGSTHYADSVKGRFTISRDNAKNTVYLQMNSLKPEDTAVYYCNARGYYSVPSNTGIRYYRFDYWGQGTQVTVSS | low polyreactivity
32 | QVQLVESGGGLVQAGGSLRLSCPASGITFGSYAMGWYRQAPGKERELVAAITSGGGTNYADSEKGRFTISRDNAKNTVYLHMNSLKPEDTAGYYCAARYYYLGTRYGYWGQGTQVTVSS | low polyreactivity
33 | QVQLVESGGGLVQAGGSLRLSCAASGFIFYPNAMGWYRQAPGKERELVAVITGGGSTYYADSVKGLFTISRDNAKNTVYLQMNSLKPEDPAVYYCAARTLRAGYRASGVRRDYWRQGTQVTVSS | high polyreactivity
34 | QVQLVESGGGLVQAGGSLRLSCAASGSIFLSNAIGWYRQAPGKERELVADIDWTGGDTYYADSVKGRFTISRDNAKNTVYLQMNSLKPEDTAVYYCASDYGYRNLLTEYGYWGQGTKVTVSS | low polyreactivity
35 | QVQLVESGGGLVQAGGSLRLSCAASGSIFSYYAMGWYRQAPGKERELVAAISSRGGSTYYADSVKGRFTISRDNAKKTVYLQMNSLKPEDTAVYYCAADWTSWFGVTYDYWGQGTQVTVSS | high polyreactivity
36 | QVQLVESGGGLVQAGGSLRLSCAASGFIFVRYAMGWYRQAPGKERELVASISGRGSSTYYADSVKGRFTISRDNAKNTVYLQMNSLKPEDTAVYYCAADYYRRIGGYPYDYDYWGQGTQVTVSS | high polyreactivity
37 | QVQLVESGGGLVQAGGSLRLSCAASGSIFSRNAMGWYRQAPGKEREFVARISWSSTSTNYADSVKGRFTISRDNSKNTVFLLINSLKPEDTAVYYCAADFRGDRRFDYWGQGTQVTVSS | low polyreactivity
38 | QVQLVESGGGLVQAGGSLRLSCAASGSTFLDYAMGWYRQAPGQERELVAAITSVGGTYADSVKGRFTISRDKAKNTVYLQKNSLKPEDTAGYYCAADADFWYYVVHRGSTFDYSGQGTQVTVSS | low polyreactivity
39 | QVQLVDSGGGLVQAGGSLRLSCAPYVLIFWAYAMGWYRQAPGKERELVAAISWSGARTYYADSVMGRFTISRDHAKHTVYLQMNSLKPEDTAVYYCAVGVQSSKRHDYWGQGTQVTVSS | high polyreactivity
40 | QVQLVESGGGLVQAGGSLRLSYAASGFTFTGYALGWYRQAPGKARELVAAISQSGGSTYADSVKGRFTISRDNAKNTVYLQMNSLKPEDTAVYYCAAVWFLLTEYDYWGQGTQVTVSS | low polyreactivity
41 | QVQLVESGGGLVQAGGSLRLSCAASGSTFLLNTMGWYRQAPGKERELVAAISSITGDTYYADSVKGRFTISRDNAKNTVYLQMNSLNPEDTAVYYCAAYLSETRPYLYDYWGQGTQVTVSS | low polyreactivity
42 | QVLLVESGGGLVQAGGSLRLSCSASGSTSRFYAMGWSRQEPGKERELVAAINKSGTRTYYADSVKGRFTISRDNAKNTVYLQMNSLKPEDTAVYYCAADQGTYGYGGFYYWGLGTQVTVSS | high polyreactivity
43 | QVQLVESGGGLVQAGCSLRLSCAASGSTIYTYTMGWYRQAPGKERELVAAISSSGGDTYYADSVKGRFTISRDNAKNTVYLQMNSLKPEDTAVYYWDALGAFPSLEFDYWGQGTHVTVSS | low polyreactivity
